# Literature values as cited in PMC3046808.
# Biological target: Gag (Human immunodeficiency virus 1) (UniProt O93182)
# Sequence of Gag (O93182 2-500): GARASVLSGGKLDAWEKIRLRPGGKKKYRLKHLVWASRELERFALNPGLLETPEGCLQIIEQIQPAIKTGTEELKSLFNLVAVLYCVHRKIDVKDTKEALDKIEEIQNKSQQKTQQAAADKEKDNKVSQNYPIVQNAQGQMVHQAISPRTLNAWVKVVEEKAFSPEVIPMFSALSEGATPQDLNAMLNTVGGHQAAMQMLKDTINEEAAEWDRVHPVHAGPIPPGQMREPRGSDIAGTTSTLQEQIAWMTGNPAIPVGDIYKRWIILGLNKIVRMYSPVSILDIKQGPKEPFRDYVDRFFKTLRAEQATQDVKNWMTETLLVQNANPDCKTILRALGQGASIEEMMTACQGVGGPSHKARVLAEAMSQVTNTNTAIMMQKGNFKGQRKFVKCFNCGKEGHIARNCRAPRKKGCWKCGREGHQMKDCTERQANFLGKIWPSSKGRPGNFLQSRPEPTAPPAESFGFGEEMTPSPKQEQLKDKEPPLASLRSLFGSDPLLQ
substance,measurement,value
Gag (from UniProt O93182),Kd,3.9 µM
